Reference: article PMC10592209 (Neuron, 2023)

Target: the molecule itself
Experiment: native gel or EMSA

Row | Protein | stoichiometry N
1 | voltage-gated HCN1 channel (natural protein, mouse (endogenous in brain), UniProt O88704 1-910, looked up) MEGGGKPNSASNSRDDGNSVFPSKAPATGPVAADKRLGTPPGGGAAGKEHGNSVCFKVDGGGGEEPAGSFEDAEGPRRQYGFMQRQFTSMLQPGVNKFSLRMFGSQKAVEKEQERVKTAGFWIIHPYSDFRFYWDLIMLIMMVGNLVIIPVGITFFTEQTTTPWIIFNVASDTVFLLDLIMNFRTGTVNEDSSEIILDPKVIKMNYLKSWFVVDFISSIPVDYIFLIVEKGMDSEVYKTARALRIVRFTKILSLLRLLRLSRLIRYIHQWEEIFHMTYDLASAVVRIFNLIGMMLLLCHWDGCLQFLVPLLQDFPPDCWVSLNEMVNDSWGKQYSYALFKAMSHMLCIGYGAQAPVSMSDLWITMLSMIVGATCYAMFVGHATALIQSLDSSRRQYQEKYKQVEQYMSFHKLPADMRQKIHDYYEHRYQGKIFDEENILSELNDPLREEIVNFNCRKLVATMPLFANADPNFVTAMLSKLRFEVFQPGDYIIREGAVGKKMYFIQHGVAGVITKSSKEMKLTDGSYFGEICLLTKGRRTASVRADTYCRLYSLSVDNFNEVLEEYPMMRRAFETVAIDRLDRIGKKNSILLQKFQKDLNTGVFNNQENEILKQIVKHDREMVQAIPPINYPQMTALNCTSSTTTPTSRMRTQSPPVYTATSLSHSNLHSPSPSTQTPQPSAILSPCSYTTAVCSPPIQSPLATRTFHYASPTASQLSLMQQPQQQLPQSQVQQTQTQTQQQQQQQQQQQQQQQQQQQQQQQQQQQQQQQQQQQQQPQTPGSSTPKNEVHKSTQALHNTNLTKEVRPLSASQPSLPHEVSTLISRPHPTVGESLASIPQPVAAVHSTGLQAGSRSTVPQRVTLFRQMSSGAIPPNRGVPPAPPPPAAVQRESPSVLNTDPDAEKPRFASNL | 4
2 | acid-gated ASIC1 channel (natural protein, mouse (endogenous in brain), UniProt Q6NXK8 1-526, looked up) MELKTEEEEVGGVQPVSIQAFASSSTLHGLAHIFSYERLSLKRALWALCFLGSLAVLLCVCTERVQYYFCYHHVTKLDEVAASQLTFPAVTLCNLNEFRFSQVSKNDLYHAGELLALLNNRYEIPDTQMADEKQLEILQDKANFRSFKPKPFNMREFYDRAGHDIRDMLLSCHFRGEACSAEDFKVVFTRYGKCYTFNSGQDGRPRLKTMKGGTGNGLEIMLDIQQDEYLPVWGETDETSFEAGIKVQIHSQDEPPFIDQLGFGVAPGFQTFVSCQEQRLIYLPSPWGTCNAVTMDSDFFDSYSITACRIDCETRYLVENCNCRMVHMPGDAPYCTPEQYKECADPALDFLVEKDQEYCVCEMPCNLTRYGKELSMVKIPSKASAKYLAKKFNKSEQYIGENILVLDIFFEVLNYETIEQKKAYEIAGLLGDIGGQMGLFIGASILTVLELFDYAYEVIKHRLCRRGKCQKEAKRNSADKGVALSLDDVKRHNPCESLRGHPAGMTYAANILPHHPARGTFEDFTC | 3
